What was measured:
Human DLL3-ECD = biological target: T1, Human DLL3-ECD (Homo sapiens, UniProt Q9NYJ7); test: SPR binding to human DLL3-ECD (Example 11); settings: immobilized biotinylated target, 1:1 Langmuir, Tables 14, 15
T1 construct: human DLL3 protein (Q9NYJ7, Gene ID: 10683, residues 27 to 466) linked via an Avi-tag; 3C protease recognition site (C); Fc knob into hole (C); purchased Evitria; host or cells: CHO cells
T1 sequence (Q9NYJ7 27-466): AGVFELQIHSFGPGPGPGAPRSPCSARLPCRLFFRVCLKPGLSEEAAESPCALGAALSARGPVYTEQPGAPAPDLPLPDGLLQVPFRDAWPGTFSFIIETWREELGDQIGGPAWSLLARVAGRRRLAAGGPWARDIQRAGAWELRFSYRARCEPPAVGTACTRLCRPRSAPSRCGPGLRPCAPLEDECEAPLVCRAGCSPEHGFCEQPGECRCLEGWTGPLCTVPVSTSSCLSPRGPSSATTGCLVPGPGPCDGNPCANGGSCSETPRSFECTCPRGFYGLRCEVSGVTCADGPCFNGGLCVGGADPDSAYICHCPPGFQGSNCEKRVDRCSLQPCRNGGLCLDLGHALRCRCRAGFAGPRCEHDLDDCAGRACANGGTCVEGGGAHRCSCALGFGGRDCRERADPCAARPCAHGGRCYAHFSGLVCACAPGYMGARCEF
Excerpt: Two target formats were chosen: i) the first target protein consisted of the extracellular domain of human DLL3 protein (Q9NYJ7, Gene ID: 10683, residues 27 to 466) linked via an Avi-tag (for site-directed biotinylation), followed by a 3C protease recognition site, to a Fc knob into hole (hDLL3-Avi-Fckih); ii) the second target protein consisted of a very similar design including more residues of the extracellular domain of DLL3 (Q9NYJ7, Gene ID: 10683, res 27-470), directly linked to the Fc knob into hole domain followed by an Avi-tag (hDLL3-Fckih-Avi).
hDLL3-Avi-Fckih was expressed in CHO cells (Chinese hamster ovary cells) by Evitria and purified by a protein A derivative-based affinity chromatography followed by preparative size-exclusion chromatography (SEC). The material was up-concentrated in PBS pH 7.4 to 0.69 mg/ml and in vitro biotinylated using recombinant BirA. The final material was monomeric on size exclusion and stored in PBS pH 7.4 at the final concentration of 0.35 mg/ml.
The binding of 2D ankyrin repeat protein MAM279 as well as of MAM279 conjugated to the chelator DOTAM (the conjugation was performed as described in Example 3) to different target proteins was analyzed by Surface Plasmon Resonance (SPR). Specifically, the proteins analyzed were (i) MAM279 (SEQ ID NO: 11), with a Glycine-Serine (GS) at its N-terminal end and an N-terminal His-tag (SEQ ID NO: 19); and (ii) MAM279 (SEQ ID NO: 11), with a Glycine-Serine (GS) at its N-terminal end and a tag (SEQ ID NO: 10) at its C-terminal end (resulting in GS-MAM279-tag (SEQ ID NO: 15)), conjugated to the chelator DOTAM as described in Example 3.
A surface plasmon resonance (SPR) assay was used to determine the binding kinetics of the two proteins (i.e. MAM279 with and without conjugation to chelator) to different targets: the Extra-Cellular Domain (ECD) of human DLL3, the ECD of cynomolgus monkey DLL3, the N-Terminal Domain (NTD) only of human DLL3, and the NTD dog DLL3. The data were generated using BioRad ProteOn instrument in SPR running buffer (PBS, pH 7.4 containing 0.005% Tween 20©). […] The chip was coated with biotinylated target to reach a signal intensity of 1516 RU (human ECD), 257 RU (human NTD), 1500 RU (cyno ECD) and 228 RU (dog NTD). All analytes (various concentrations in 3-fold dilutions ranging from 500-6.17 nM) were injected in succession for 240 s (100 μl/min) and dissociation was recorded for 10800 s (100 μl/min). Each injection was followed by a regeneration step with 16 mM H3PO4 for 18 s. […] The obtained SPR traces were used to determine on-rate and off-rate interaction parameters.

mouse serum albumin = biological target: T2, mouse serum albumin (Mus musculus, UniProt P07724); test: SPR binding to mouse serum albumin (Example 18); settings: immobilized MSA, 1:1 Langmuir, Table 21
T2 construct: purchased Sigma-Aldrich
Protocol: SPR multi-trace analyses were performed similarly as described in previous Examples. The following ankyrin repeat proteins analyzed: (i) MAM279 (SEQ ID NO: 11) (with a Glycine-Serine (GS) at its N-terminal end); and (ii) MAM279 (SEQ ID NO: 11), with a Glycine-Serine (GS) at its N-terminal end and a tag (SEQ ID NO: 10) at its C-terminal end (resulting in GS-MAM279-tag (SEQ ID NO: 15)), conjugated to the chelator DOTAM as described in Example 3.
All analytes (3-fold dilution ranging from 600-7.41 nM) were injected in succession for 240 s and dissociation was recorded for 600 s using a constant flow of 25 μl/min (HSA) or 100 μl/min (MSA) (25 μl/min). […] The obtained SPR traces were used to determine the DARPin-serum albumin interaction parameters, and results are summarized in Table 21.

T2 sequence (P07724 25-608): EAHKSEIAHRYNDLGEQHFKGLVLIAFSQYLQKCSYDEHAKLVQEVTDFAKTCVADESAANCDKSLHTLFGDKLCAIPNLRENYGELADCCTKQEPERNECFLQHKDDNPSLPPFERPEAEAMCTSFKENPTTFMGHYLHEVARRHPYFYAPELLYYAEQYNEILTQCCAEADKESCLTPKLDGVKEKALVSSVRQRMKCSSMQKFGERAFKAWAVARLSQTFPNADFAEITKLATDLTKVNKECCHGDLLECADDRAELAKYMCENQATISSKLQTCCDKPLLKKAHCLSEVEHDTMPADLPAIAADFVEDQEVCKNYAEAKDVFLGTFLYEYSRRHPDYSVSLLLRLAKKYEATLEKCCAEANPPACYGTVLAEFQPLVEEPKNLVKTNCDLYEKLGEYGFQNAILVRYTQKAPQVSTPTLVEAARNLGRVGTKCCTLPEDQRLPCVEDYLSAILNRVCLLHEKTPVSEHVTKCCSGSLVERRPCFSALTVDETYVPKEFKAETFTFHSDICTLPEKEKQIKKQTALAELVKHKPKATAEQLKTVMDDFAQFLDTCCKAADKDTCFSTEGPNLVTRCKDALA

| Molecule | Kd (Human DLL3-ECD) [nM] | Koff Human DLL3-ECD (Human DLL3-ECD) [s⁻¹] | Kon Human DLL3-ECD (Human DLL3-ECD) [M⁻¹ s⁻¹] | Kd (mouse serum albumin) [nM] | Koff MSA (mouse serum albumin) [s⁻¹] | Kon MSA (mouse serum albumin) [M⁻¹ s⁻¹] |
| --- | --- | --- | --- | --- | --- | --- |
| MAM279: Two domain (2D) ankyrin repeat protein: serum albumin-specific domain (SEQ ID NO: 7), PT linker, DLL3-specific domain of MAM093 (protein, Ankyrin repeat protein (MAM279)) DLGKKLLEAARAGQDDEVRELLKAGADVNAKDYFSHTPLHLAARNGHLKIVEVLLKAGADVNAKDFAGKTPLHLAADAGHLEIVEVLLKAGADVNAQDIFGKTPADIAADAGHEDIAEVLQKAAGSPTPTPTTPTPTPTTPTPTPTGSDLGKKLLAAAAQGQDDEVRELLKAGANVNAKDLFGYTPLHLAAWRGHLEIVEVLLKAGADVNAKDAAGETPLHLAAWFGHLEIVEVLLKAGADVNAQDLQGKTPADLAAKEGHEDIAEVLQKAA | 0.174 | 1.45e-05 | 83500 | 144 | 0.0383 | 267000 |
| MAM279-DOTAM: GS-MAM279-tag (SEQ ID NO: 15) conjugated to the chelator DOTAM via C-terminal tag and maleimide connector, no radionuclide (conjugate, DOTAM chelator via maleimide on C-terminal tag; Ankyrin repeat protein with tag (GS-MAM279-tag)) GSDLGKKLLEAARAGQDDEVRELLKAGADVNAKDYFSHTPLHLAARNGHLKIVEVLLKAGADVNAKDFAGKTPLHLAADAGHLEIVEVLLKAGADVNAQDIFGKTPADIAADAGHEDIAEVLQKAAGSPTPTPTTPTPTPTTPTPTPTGSDLGKKLLAAAAQGQDDEVRELLKAGANVNAKDLFGYTPLHLAAWRGHLEIVEVLLKAGADVNAKDAAGETPLHLAAWFGHLEIVEVLLKAGADVNAQDLQGKTPADLAAKEGHEDIAEVLQKAAGSGSC |  | 1.64e-05 | 67400 |  | 0.0425 | 155000 |

Source: patent publication US20250332297A1, “DLL3-SPECIFIC BINDING CONSTRUCTS AND THEIR USE IN RADIOTHERAPY” (MOLECULAR PARTNERS AG, priority 2024, published 2025)
